# Earlier results in patent US6759384B1, “Factor Xa inhibitors” (Aventis Pharmaceuticals Inc., priority 1994, dated 2004).
# B1: ATS: antistasin, protein inhibitor of factor Xa isolated from the leech Haementerin officinalis, 119 amino acids (protein, UniProt P15358 18-136, looked up)
# Antistasin: QGPFGPGCEEAGCPEGSACNIITDRCTCSGVRCRMHCPHGFQRSRYGCEFCKCRLEPMKATCDISECPEGMMCSRLTNKCDCKIDINCRKTCPNGLKRDKLGCEYCECRPKRKLIPRLS
# Biological target: factor Xa
# Conditions: background section
molecule,measurement,value
B1,Ki,0.05 nM
